For 9 molecules, Kd, binding result and IC50 results are on record in patent US20060193821, “Aptamers to the human IL-12 cytokine family and their use as autoimmune disease therapeutics” (published 2006).

In data set [1] the target is T1, IL-23 (human, p19/p40 heterodimer) (Homo sapiens, UniProt Q9NPF7;P29460 SEQ:20-189,SEQ:23-328). The data set can be described thus: filter; 1X PBS, tRNA, ssDNA, BSA, 30 min RT. As to conditions: tags: R&D Systems, carrier free; label: 5'-32P. An excerpt:
Following the dRmY selection process for aptamers binding to IL-23 (described in Example 1C above) and determination of the oligonucleotide sequences, the sequences were systematically minimized to obtain shorter oligonucleotide sequences that retain the binding characteristics. On the basis of the IL-23 binding analysis described in Example 1A above and the cell based assay data described in Example 3 below, ARC489 (SEQ ID NO 91) (74mer) was chosen for further characterization. 3 minimized constructs based on clone ARC489 (SEQ ID NO 91) were designed and generated. […] Table 23 includes the binding data for the dRmY minimized aptamers.

Data set [2] concerns the target T1, IL-23 (human, p19/p40 heterodimer). The experiment in a line: filter; non functional, lacks G doubles. As to conditions: tags: R&D Systems, carrier free.
For data set [3], the target named is T2, IL-23 (mouse, p19/p40 heterodimer) (Mus musculus, UniProt Q9EQ14;P43432 SEQ:22-196,SEQ:23-335).
T2 sequence 1: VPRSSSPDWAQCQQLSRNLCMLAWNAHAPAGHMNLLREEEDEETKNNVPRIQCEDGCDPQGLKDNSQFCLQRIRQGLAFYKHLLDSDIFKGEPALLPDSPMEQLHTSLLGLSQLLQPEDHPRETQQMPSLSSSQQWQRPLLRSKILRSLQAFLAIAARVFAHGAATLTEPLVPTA
T2 sequence 2: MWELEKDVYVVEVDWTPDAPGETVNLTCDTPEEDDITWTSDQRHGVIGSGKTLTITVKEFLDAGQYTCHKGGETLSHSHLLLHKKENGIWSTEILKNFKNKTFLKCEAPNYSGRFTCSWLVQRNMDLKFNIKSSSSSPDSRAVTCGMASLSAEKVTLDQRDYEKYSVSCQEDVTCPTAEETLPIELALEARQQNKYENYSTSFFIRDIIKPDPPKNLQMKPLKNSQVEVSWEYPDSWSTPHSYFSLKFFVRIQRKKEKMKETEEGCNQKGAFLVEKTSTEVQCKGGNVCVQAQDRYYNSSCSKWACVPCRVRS
The data set can be described thus: filter; 1X PBS, 0.1 mg/mL BSA, 30 min RT; inactive in TransAM cell assay. Conditions: tags: isolated in-house; label: 32P. The text has this:
Based on visual inspection of the parent clone sequences of the mouse IL-23 rRfY aptamers described in Example 1E, and predicted RNA structures using an RNA folding program (RNAstructure), minimized constructs were designed for each of the seven binding mIL-23 clones. PCR templates for the minimized construct oligos were ordered from Integrated DNA Technologies (Coraville, Iowa). Constructs were PCR amplified, transcribed, gel purified, and tested for binding to mIL-23 using the dot blot binding assay previously described. Trace ³²P-labeled RNA was combined with mIL-23 and incubated at room temperature for 30 min in 1×PBS plus 0.1 mg/mL BSA for a final volume of 30 μL. The reaction was added to a dot blot apparatus (Schleicher and Schuell Minifold-1 Dot Blot, Acrylic). Binding curves were generated as described in previous sections. Table 33 summarizes the protein binding characterization for each rRfY minimized construct that had significant binding to mIL-23.

Data set [4] addresses T1, IL-23 (human, p19/p40 heterodimer). The data set can be described thus: filter; direct binding without tRNA; competition Kd 5 nM. Conditions: tags: R&D Systems, carrier free; label: 5'-32P. As to the method: These molecules were gel purified and assayed for IL-23 binding using the dot blot assay as described above and compared to each other and to the parent molecule, ARC979. An 8 point IL-23 titration (0 nM to 300 nM, 3 fold serial dilutions) was used in the binding assay.

Data set [5] shares this target. The data set can be described thus: cell_activity; Pathscan, +/-1; TransAM 40 nM. Conditions: tags: R&D Systems, carrier free; G4. As to the method: (§1) PHA Blasts were isolated and prepared as described above and treated with hIL-23 at a final constant concentration of 6 ng/mL (R&D Systems, Minneapolis, Minn.) to induce STAT3 activation, instead of using 3 ng/mL as previously described with the TransAM™ assay. Clones were screened by using a 6-point […] titration from 0 to 700 nM in 3 fold dilutions in combination with a constant IL-23 concentration of 6 ng/mL of IL-23 (R&D Systems, Minneapolis, Minn.) to induce STAT3 activation, instead of using 3 ng/mL as previously described with the TransAM™ assay. Lysates of treated cells were prepared using the buffers provided by the Pathscan kit, and the assay was run according to the manufacturer's instructions. IC₅₀s for the full length clones were calculated from the dose response curves.

The target is the same in data set [6]. The experiment in a line: cell_activity; Pathscan pSTAT3, PHA blasts. Conditions: tags: R&D Systems, carrier free. As to the method: as §1
For data set [7] the target is unchanged. The data set can be described thus: filter; DPBS Ca Mg, 0.1 mg/mL BSA. As to conditions: tags: R&D Systems, carrier free. As to the method: The dot blot binding assay previously described was used to characterize the relative potency of the majority of the aptamers synthesized. For KD determination, chemically synthesized aptamers were purified using denaturing polyacrylamide gel electrophoresis, 5′end labeled with γ-³²P ATP and were tested for direct binding to full human IL-23. An 8 point protein titration was used in the dot blot binding assay (either {100 nM, 30 nM, 10 nM, 3 nM, 1 nM, 300 pM, 100 pM, 0 pM} or {10 nM, 3 nM, 1 nM, 300 pM, 100 pM, 30 pM, 10 pM, 0 pM}) in Dulbecco's PBS (with Mg⁺⁺ and Ca⁺⁺) with 0.1 mg/mL BSA. KD values were calculated by fitting the equation y=(max/(1+K/protein))+yint using KaleidaGraph (KaleidaGraph v. 3.51, Synergy Software). Sequences of the ARC979 derivatives synthesized, purified and assayed for binding to IL-23 as well as the results of the protein binding characterization are tabulated below in Tables 29 and 30.

For data set [8] the target is unchanged. The experiment in a line: SPR; Biacore, IL-23 immobilized on CM3; HBS-P, 25 C. As to conditions: tags: R&D Systems, carrier free. As to the method:
All biosensor binding measurements were performed at 25° C. using a BIACORE 2000 equipped with a research-grade CM3 biosensor chip (BIACORE Inc. Piscataway, N.J.). Purified recombinant human IL-23 (R&D Systems, Minnapolis, Minn.) was immobilized to the biosensor surface using amino-coupling chemistry. To achieve this, the surfaces of two flow cells were first activated for 7 minutes with a 1:1 mixture of 0.1 M NHS (Nhydroxysuccinimide) and 0.4 M EDC (3-(N,Ndimethylamine) propyl-N-ethylcarbodiimide) at a flow rate of 5 μl/min. After surface activation, one flow cell was injected with 50 μg/ml of IL-23 at rate of 10 μl/minute for 15 minutes to allow for establishment of covalent bonds to the activated surface. Next, 1 M ethanolamine hydrochloride pH 8.5 was injected for 7 min at rate of 5 μl/min to inactivate residual esters. As a negative control, a blank flow cell was prepared by injecting 1 M ethanolamine hydrochloride pH 8.5 continuously for 7 minutes to inactivate residual esters, without protein injection.
For IL-23 binding, aptamers were serially diluted into HBS-P buffer (10 mM HEPES pH7.4, 150 mM NaCl, 0.005% Surfactant 20). […] Rate constant and dissociation constant were calculated using BIAevaluation software.

Data set [9] has as its target T2, IL-23 (mouse, p19/p40 heterodimer). The experiment in a line: filter; 1X PBS, 0.1 mg/mL BSA, 30 min RT. As to conditions: tags: isolated in-house; label: 32P. As to the method:
(§2) rRfY-mIL-23S/mIL-12 neg Protein Binding Analysis. The dot blot binding assays previously described were performed throughout the selection to monitor the protein binding affinity of the pool. Trace ³²P-labeled RNA was combined with mIL-23 or mIL-12 and incubated at room temperature for 30 min in 1×PBS plus 0.1 mg/mL BSA for a final volume of 30 μL. The reaction was added to a dot blot apparatus (Schleicher and Schuell Minifold-1 Dot Blot, Acrylic). Binding curves were generated as described in previous sections. When a significant level of binding of RNA in the presence of mIL-23 was observed, the pool was cloned using the TOPO TA cloning kit (Invitrogen, Carlsbad, Calif.) according to the manufacturer's instructions. The Round 9 pool template was cloned, and 10 individual clones from the selection were assayed in an 8-point dot blot titration against mIL-23. […] Four of the 10 total clones screened bound especially to mIL-23 and mIL-12 at varying affinities.

The target in data set [10] is T3, IL-12 (mouse, p35/p40 heterodimer) (Mus musculus, UniProt P43431;P43432 SEQ:23-215,SEQ:23-335).
T3 sequence 1: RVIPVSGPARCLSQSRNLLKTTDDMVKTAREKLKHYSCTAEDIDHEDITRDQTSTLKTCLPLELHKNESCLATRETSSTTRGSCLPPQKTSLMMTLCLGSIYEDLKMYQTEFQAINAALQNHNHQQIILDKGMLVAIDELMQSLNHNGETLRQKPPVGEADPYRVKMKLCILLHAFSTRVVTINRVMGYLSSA
T3 sequence 2: T2 sequence 2
The data set can be described thus: filter; 1X PBS, 0.1 mg/mL BSA, 30 min RT. As to conditions: label: 32P. As to the method: as §2

T1 sequence (Q9NPF7 20-189, chain 1 of 2): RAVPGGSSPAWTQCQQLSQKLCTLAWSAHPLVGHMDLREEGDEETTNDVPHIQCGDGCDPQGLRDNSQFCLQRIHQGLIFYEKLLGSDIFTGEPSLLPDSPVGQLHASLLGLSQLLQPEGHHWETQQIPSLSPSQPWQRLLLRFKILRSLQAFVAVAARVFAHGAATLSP
T1 sequence (P29460 23-328, chain 2 of 2): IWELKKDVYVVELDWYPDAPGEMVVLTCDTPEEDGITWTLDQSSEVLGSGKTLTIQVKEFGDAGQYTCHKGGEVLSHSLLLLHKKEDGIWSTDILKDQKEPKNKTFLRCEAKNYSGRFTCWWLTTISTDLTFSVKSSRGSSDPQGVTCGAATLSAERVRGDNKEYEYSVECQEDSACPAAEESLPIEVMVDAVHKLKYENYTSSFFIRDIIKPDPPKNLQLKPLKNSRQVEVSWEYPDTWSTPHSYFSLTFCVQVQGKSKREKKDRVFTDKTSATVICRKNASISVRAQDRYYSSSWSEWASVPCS

For orientation: Kd means the constant that tells how readily two partners part at equilibrium. Molecule ACAGCGCCGGUGGGCGGGCAUUGGGUGGAUGCGCUGU (mixed, 2'-deoxy A and G, 2'-OMe C and U (dRmY)) [ARC527] returned a Kd in data set [1] of 12.6 nM.

Regarding CUACAAGGCGGUACGGGGAGUGUGG (mixed, deoxy A,G; 2'-OMe C,U) [ARC793], in data set [2], the binding result is recorded as “no binding”.

With GGAGCGCACUCAGCCACCGGCUUAAUAUCCAAUAGGAACGUUCGCUCU (ssRNA, 2'-F all C and U (rRfY)) [ARC1918 (ARC1632 minimer)], binding in [3] was put at a Kd of 1 nM.

B1: ARC1160 (mixed)
RNA: ACAGGCAAGUAAUUGGGGAGUGCGGGCGGGGUGU
modifications: dRmY; PS between nt 18 and 19 [N = PS linkage, not a base; PS between nt 18 and 19; 2'-deoxy all A/G; 2'-OMe all C/U (2,6,10,13,14,21,23,27,32,34)]
In data set [4], B1 had a dissociation constant Kd of 38 nM.

By IC50 is commonly meant the concentration at which inhibition is half-maximal. Regarding ACAGGCAAGUAAUUGGGGAGUGCGGGCGGGGUGU (mixed, deoxy A,G; 2'-OMe C,U) [ARC979], the IC50 in data set [5] came out at 6 nM.

B2: ARC1624 (mixed)
RNA: B1 RNA
modifications: 2'-OMe C,U and G16,G17,G24,G25,G30,G31; other A,G deoxy; PS 25-26,27-28,28-29; 3'-idT [2'-OMe C2,C6,U10,U13,U14,G16,G17,U21,C23,G24,G25,C27,G30,G31,U32,U34; other A,G deoxy; PS 25-26,27-28,28-29 (N = PS linkage, left out); 3'-inverted dT 35]
In the case of B2, the IC50 in data set [6] came to 2 nM.

B3: ARC1620 (mixed)
RNA: B1 RNA
modifications: 2'-OMe C,U and G16,G17,G24,G25,G30,G31; other A,G deoxy; PS 2-3; 3'-idT [PS 2-3; 2'-OMe at 2,6,10,13,14,16,17,21,23,24,25,27,30,31,32,34; other A,G deoxy; 3'-inverted dT at 35]
Regarding B3, in data set [7], the Kd was 0.4 nM.

Molecule ACAGGCAAGUAAUUGGGGAGUGCGGGCGGGGUGU (mixed, ARC1623 with 5'-amine-linked 40 kDa PEG; 2'-deoxy, 2'-OMe, PS, 3'-idT) [ARC1988] showed a Kd in data set [8] of around 2 nM.

B4: AMX369.H1 (ARC1914) (ssRNA)
RNA: GGAGCGCACUCAGCCACCUGGGAAAAUCUGGGUCCCUGAGUUCUAACAGCAGAGAUUUUUCGACCUCUCUGCUAGC
modifications: 2'-F all C and U (rRfY)
Turning to B4, the values for the Kd in [9] and in data set [10] were 23 nM and 194 nM, respectively.
